Residue numbers refer to the chain shown, from its start. Names and notes keep the numbering of the source.
T1: orthogonal hCD122 receptor (hoRb), hCD122 with H133D and Y134F (human, UniProt P14784 27-550)
T1 sequence: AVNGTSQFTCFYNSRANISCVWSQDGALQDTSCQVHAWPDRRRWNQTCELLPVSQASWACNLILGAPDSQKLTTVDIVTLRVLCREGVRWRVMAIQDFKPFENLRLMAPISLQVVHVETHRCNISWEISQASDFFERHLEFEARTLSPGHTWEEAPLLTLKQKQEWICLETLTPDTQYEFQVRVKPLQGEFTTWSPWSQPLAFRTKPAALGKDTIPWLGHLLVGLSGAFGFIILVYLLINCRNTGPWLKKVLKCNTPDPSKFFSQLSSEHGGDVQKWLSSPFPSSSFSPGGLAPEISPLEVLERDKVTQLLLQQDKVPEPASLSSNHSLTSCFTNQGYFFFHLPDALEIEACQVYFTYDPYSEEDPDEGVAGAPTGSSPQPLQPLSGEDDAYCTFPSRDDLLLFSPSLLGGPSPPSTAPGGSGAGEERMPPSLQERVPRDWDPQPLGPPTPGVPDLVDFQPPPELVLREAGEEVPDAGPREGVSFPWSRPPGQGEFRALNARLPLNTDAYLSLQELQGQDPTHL

B1: ΔQ13, SQVLKA (ligand)
chain: APTSSSTKKTQLLSQLLVLLKAILNGINNYKNPKLTRMLTFKFYMPKKATELKHLQCLEEELKPLEEVLNLAQSKNFHLRPRDLISNINVIVLELKGSETTFMCEYADETATIVEFLNRWITFCQSIISTLT
B2: SQVLKH (ligand)
chain: APTSSSTKKTQLQLSQLLVLLKHILNGINNYKNPKLTRMLTFKFYMPKKATELKHLQCLEEELKPLEEVLNLAQSKNFHLRPRDLISNINVIVLELKGSETTFMCEYADETATIVEFLNRWITFCQSIISTLT
B3: SQVLKL (ligand)
chain: B2 chain with H23L
B4: SQVLKS (ligand)
chain: B2 chain with H23S
B5: R38W, SQVLKA (ligand)
chain: B2 chain with H23A, R38W
B6: SQVLKY (ligand)
chain: B2 chain with H23Y
B7: R38G, SQVLKA (ligand)
chain: B2 chain with H23A, R38G
B8: SQVLKQ (ligand)
chain: B2 chain with H23Q
B9: SQVLKV (ligand)
chain: B2 chain with H23V
B10: SQVLKF (ligand)
chain: B2 chain with H23F
B11: G27K, SQVLKA (ligand)
chain: B2 chain with H23A, G27K
B12: SQVLKT (ligand)
chain: B2 chain with H23T
B13: G27S, SQVLKA (ligand)
chain: B2 chain with H23A, G27S
B14: ΔG27, SQVLKA (ligand)
chain: APTSSSTKKTQLQLSQLLVLLKAILNINNYKNPKLTRMLTFKFYMPKKATELKHLQCLEEELKPLEEVLNLAQSKNFHLRPRDLISNINVIVLELKGSETTFMCEYADETATIVEFLNRWITFCQSIISTLT

biological target: T1, orthogonal hCD122 receptor (hoRb), …; experiment: cell-based or functional assay

NKL Ortho Proliferation Signal 1:2	NKL Ortho Proliferation Signal 1:10	NKL Ortho Proliferation Signal 1:50	Relative Proliferation Fold Change NKL 1:2	Relative Proliferation Fold Change NKL 1:10	Relative Proliferation Fold Change NKL 1:50	Binder
26700	20700	11800	2.06 fold	1.39 fold	0.79 fold	B1
44400	39200	18500	4 fold	2.7 fold	1.49 fold	B2
59700	67100	32700	4.69 fold	4.38 fold	2.26 fold	B3
56200	59400	29000	4.79 fold	3.99 fold	2.11 fold	B4
36700	23800	11500	2.74 fold	1.51 fold	0.77 fold	B5
52400	43800	21900	3.51 fold	2.64 fold	1.38 fold	B6
20100	18100	9740	1.78 fold	1.19 fold	0.67 fold	B7
74300	82000	49600	4.43 fold	4.61 fold	3.05 fold	B8
63400	66100	29900	4.61 fold	4.15 fold	2 fold	B9
65100	44700	23200	3.54 fold	2.5 fold	1.43 fold	B10
36300	30600	15200	2.93 fold	1.94 fold	1.03 fold	B11
61400	63400	33400	4.68 fold	4.52 fold	2.5 fold	B12
48900	41000	20700	4.21 fold	2.94 fold	1.53 fold	B13
46600	31400	14600	3.29 fold	2.05 fold	1.04 fold	B14

biological target: T1, orthogonal hCD122 receptor (hoRb), …; experiment: cell-based or functional assay; remark: another data set of the same source

3F8 Ortho Proliferation Signal 1:2	3F8 Ortho Proliferation Signal 1:10	3F8 Ortho Proliferation Signal 1:50	Relative Proliferation Fold Change 3F8 1:2	Relative Proliferation Fold Change 3F8 1:10	Relative Proliferation Fold Change 3F8 1:50	Binder
37600 cts/min	26100 cts/min	12400 cts/min	102 fold	23.7 fold	7.63 fold	B1
25700 cts/min	17300 cts/min	18700 cts/min	39.9 fold	14.6 fold	13.7 fold	B2
40200 cts/min	37000 cts/min	8930 cts/min	43 fold	15.3 fold	5.43 fold	B3
43800 cts/min	55500 cts/min	26600 cts/min	90.8 fold	58.3 fold	24.2 fold	B4
40400 cts/min	41100 cts/min	24200 cts/min	94.4 fold	57.3 fold	21.4 fold	B5
39100 cts/min	50600 cts/min	24600 cts/min	29.5 fold	50 fold	30.3 fold	B6
27200 cts/min	32100 cts/min	14200 cts/min	47.5 fold	21.6 fold	8.42 fold	B7
45700 cts/min	64000 cts/min	33100 cts/min	31.1 fold	20 fold	29.5 fold	B8
45300 cts/min	53000 cts/min	21000 cts/min	36.1 fold	29.1 fold	20.8 fold	B9
42100 cts/min	48500 cts/min	21000 cts/min	42.8 fold	48.8 fold	17.4 fold	B10
37800 cts/min	23700 cts/min	10300 cts/min	170 fold	47.9 fold	7.82 fold	B11
46400 cts/min	54400 cts/min	28500 cts/min	22.9 fold	54.9 fold	37.8 fold	B12
40200 cts/min	34700 cts/min	15200 cts/min	94 fold	33 fold	24.6 fold	B13
28400 cts/min	21900 cts/min	6730 cts/min	105 fold	30.4 fold	10.2 fold	B14

Reference: US20210196796A1 (SYNTHEKINE, published 2021)
